Experimental data as given in publication PMC5182059.
Positions count from the first letter of the chain named. Numbers in names are those of the source.

B1: (1-452)Ric-8A truncation mutant (domain or fragment)
chain: MEPRAVADALETGEEDAVTEALRSFNREHSQSFTFDDAQQEDRKRLAKLLVSVLEQGLSPKHRVTWLQTIRILSRDRSCLDSFASRQSLHALACYADIAISEEPIPQPPDMDVLLESLKCLCNLVLSSPTAQMLAAEARLVVRLAERVGLYRKRSYPHEVQFFDLRLLFLLTALRTDVRQQLFQELHGVRLLTDALELTLGVAPKENPLVILPAQETERAMEILKVLFNITYDSVKREVDEEDAALYRYLGTLLRHCVMADAAGDRTEEFHGHTVNLLGNLPLKCLDVLLALELHEGSLEFMGVNMDVINALLAFLEKRLHQTHRLKECVAPVLSVLTECARMHRPARKFLKAQVLPPLRDVRTRPEVGDLLRNKLVRLMTHLDTDVKRVAAEFLFVLCSESVPRFIKYTGYGNAAGLLAARGLMAGGRPEGQYSEDEDTDTEEYREAKASI
B2: Ric-8A (1-491) P466A (domain or fragment)
chain: MEPRAVADALETGEEDAVTEALRSFNREHSQSFTFDDAQQEDRKRLAKLLVSVLEQGLSPKHRVTWLQTIRILSRDRSCLDSFASRQSLHALACYADIAISEEPIPQPPDMDVLLESLKCLCNLVLSSPTAQMLAAEARLVVRLAERVGLYRKRSYPHEVQFFDLRLLFLLTALRTDVRQQLFQELHGVRLLTDALELTLGVAPKENPLVILPAQETERAMEILKVLFNITYDSVKREVDEEDAALYRYLGTLLRHCVMADAAGDRTEEFHGHTVNLLGNLPLKCLDVLLALELHEGSLEFMGVNMDVINALLAFLEKRLHQTHRLKECVAPVLSVLTECARMHRPARKFLKAQVLPPLRDVRTRPEVGDLLRNKLVRLMTHLDTDVKRVAAEFLFVLCSESVPRFIKYTGYGNAAGLLAARGLMAGGRPEGQYSEDEDTDTEEYREAKASINPVTGRVEEKPPNAMEGMTEEQKEHEAMKLVNMFDKLSR
B3: Ric-8A (1-491) T456A (domain or fragment)
chain: B2 chain with T456A, A466P
B4: Ric-8A (1-491) V455A (domain or fragment)
chain: B2 chain with V455A, A466P
B5: Ric-8A (1-491) M467A (domain or fragment)
chain: B2 chain with A466P, M467A
B6: Ric-8A (1-491) P454A (domain or fragment)
chain: B2 chain with P454A, A466P
B7: Ric-8A (1-491) E468A (domain or fragment)
chain: B2 chain with A466P, E468A
B8: Ric-8A (1-491) G469A (domain or fragment)
chain: B2 chain with A466P, G469A

The binders below were run against myristoylated Gαi1 harboring a hexahistidine tag in the helical domain (rat) (UniProt P10824).
Chain of UniProt P10824 (P10824 whole entry, the tested form may be a part): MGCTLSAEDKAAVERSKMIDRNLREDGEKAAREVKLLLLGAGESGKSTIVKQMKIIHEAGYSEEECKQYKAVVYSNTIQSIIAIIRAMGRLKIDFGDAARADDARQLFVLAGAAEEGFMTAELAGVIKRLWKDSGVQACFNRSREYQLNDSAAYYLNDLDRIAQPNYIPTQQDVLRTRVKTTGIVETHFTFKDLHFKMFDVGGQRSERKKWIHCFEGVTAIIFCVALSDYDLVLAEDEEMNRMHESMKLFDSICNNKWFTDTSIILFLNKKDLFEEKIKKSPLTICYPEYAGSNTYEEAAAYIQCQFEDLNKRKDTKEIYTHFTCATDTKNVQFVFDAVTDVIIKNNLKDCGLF

v1: initial velocity of GDP to GTPγS exchange at Gαi1•GDP (2 μM) on adding GTPγS (10 μM) and Ric-8A (2 μM), tryptophan fluorescence, 25°C [µM/min]	v2: initial rate of GTPγS binding to pre-formed Gαi1:Ric-8A (2 μM each, incubated 5 min before 10 μM GTPγS), with release of Ric-8A, tryptophan fluorescence, 25°C [µM/min]	Binder
0.86	0.39	B1
0.47	0.34	B2
0.59	0.24	B3
0.82	0.25	B4
2.17	4.57	B5
2.88	5.39	B6
3.82	6.23	B7
0.63	0.26	B8
